The assay has as its target HLA-A*02:01 (Homo sapiens, UniProt P04439, D140Y/D185E/D98H/E176V/E277Q/G131W/G231S/I119V/I121R/I166T/I218V/L300P/L318F/N151K/N90K/P208A/P217A/Q86G/Q94H/R138H/R169H/T345S). Nature of the assay: MHC binding assay (UV-ligand exchange, β2m ELISA, peptide exchange yield). The note with it: binding of HLA-class I restricted peptides to HLA-A*02:01, UV-ligand exchange. A digest of the protocol:
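Peptide-MHC complexes formed by UV-ligand exchange, cleaving a UV-sensitive placeholder peptide in favour of the test peptide. Exchange yield measured by ELISA: monomers diluted 100-fold onto streptavidin-coated plates, 1 h 37 °C, detected with 2 ug/ml HRP anti-β2m and TMB, absorbance at 450 nm.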
In general terms: An ELISA detects its analyte on a solid surface through an enzyme-linked reagent.
As to “233 (VLSETLYEL; listed as Homo sapiens) [compound 233]”, the “Peptide exchange (MHC class I binding score, peptide exchange yield)” value (from here on “Peptide exchange”) is on record as ““++” (≥20% = ++)”.

For “234 (ALMEDTGRQML; listed as Homo sapiens) [compound 234]”, the “Peptide exchange” value was ““++” (≥20% = ++)”.

As for “235 (YLNDLHEVLL; listed as Homo sapiens) [compound 235]”, the “Peptide exchange” value is ““++++” (≥75% = ++++)”.

Take “236 (GLLEAKVSL; listed as Homo sapiens) [compound 236]”: the “Peptide exchange” value is ““+++” (≥50 = +++)”.

With “237 (ALLEASGTLLL; listed as Homo sapiens) [compound 237]”, the “Peptide exchange” value is reported as ““++++” (≥75% = ++++)”.

On to “238 (YLISFQTHI; listed as Homo sapiens) [compound 238]”, for which the “Peptide exchange” value is ““+++” (≥50 = +++)”.

As for “239 (AAFAGKLLSV; listed as Homo sapiens) [compound 239]”, the “Peptide exchange” value was ““+++” (≥50 = +++)”.

Turning to “240 (ILLEQAFYL; listed as Homo sapiens) [compound 240]”, the “Peptide exchange” value is on record as ““+++” (≥50 = +++)”.

As to “241 (SLVEVNPAYSV; listed as Homo sapiens) [compound 241]”, the “Peptide exchange” value is recorded as ““+++” (≥50 = +++)”.

With “242 (AIAYILQGV; listed as Homo sapiens) [compound 242]”, the “Peptide exchange” value is ““++” (≥20% = ++)”.

On to “243 (LLLNELPSV; listed as Homo sapiens) [compound 243]”, for which the “Peptide exchange” value was ““+++” (≥50 = +++)”.

For the substance “244 (SLFGGTEITI; listed as Homo sapiens) [compound 244]”, the “Peptide exchange” value is listed as ““+++” (≥50 = +++)”.

For “245 (SMIDDLLGV; listed as Homo sapiens) [compound 245]”, the “Peptide exchange” value is ““+++” (≥50 = +++)”.

On to “246 (LLWEVVSQL; listed as Homo sapiens) [compound 246]”, for which the “Peptide exchange” value was ““+++” (≥50 = +++)”.

Regarding “247 (VLLPNDLLEKV; listed as Homo sapiens) [compound 247]”, the “Peptide exchange” value is reported as ““+++” (≥50 = +++)”.

Turning to “248 (FLFPNQYVDV; listed as Homo sapiens) [compound 248]”, the “Peptide exchange” value is ““+++” (≥50 = +++)”.

On to “249 (LLDGFLVNV; listed as Homo sapiens) [compound 249]”, for which the “Peptide exchange” value is listed as ““+++” (≥50 = +++)”.

Regarding “250 (ALSEEGLLVYL; listed as Homo sapiens) [compound 250]”, the “Peptide exchange” value is ““+++” (≥50 = +++)”.

In the case of “251 (ALYTGFSILV; listed as Homo sapiens) [compound 251]”, the “Peptide exchange” value is reported as ““++” (≥20% = ++)”.

As to “252 (LLIGTDVSL; listed as Homo sapiens) [compound 252]”, the “Peptide exchange” value is ““+++” (≥50 = +++)”.

In the case of “253 (GLDAATATV; listed as Homo sapiens) [compound 253]”, the “Peptide exchange” value is ““++” (≥20% = ++)”.

As to “254 (TLLAFIMEL; listed as Homo sapiens) [compound 254]”, the “Peptide exchange” value is recorded as ““+++” (≥50 = +++)”.

Take “255 (VLASYNLTV; listed as Homo sapiens) [compound 255]”: the “Peptide exchange” value is recorded as ““+++” (≥50 = +++)”.

Consider “256 (FLPPEHTIVYI; listed as Homo sapiens) [compound 256]”, for which the “Peptide exchange” value is recorded as ““+++” (≥50 = +++)”.

Take “257 (SIFSAFLSV; listed as Homo sapiens) [compound 257]”: the “Peptide exchange” value was ““+++” (≥50 = +++)”.

For “258 (ELAERVPAI; listed as Homo sapiens) [compound 258]”, the “Peptide exchange” value is recorded as ““++” (≥20% = ++)”.

As to “261 (YVLEFLEEI; listed as Homo sapiens) [compound 261]”, the “Peptide exchange” value is ““++” (≥20% = ++)”.

Turning to “262 (LLWGDLIWL; listed as Homo sapiens) [compound 262]”, the “Peptide exchange” value is ““+++” (≥50 = +++)”.

In the case of “263 (LLVSNLDFGV; listed as Homo sapiens) [compound 263]”, the “Peptide exchange” value is listed as ““+++” (≥50 = +++)”.

Regarding “264 (SLQEQLHSV; listed as Homo sapiens) [compound 264]”, the “Peptide exchange” value is given as ““+++” (≥50 = +++)”.

“265 (LLFGGTKTV; listed as Homo sapiens) [compound 265]”: the “Peptide exchange” value was ““++” (≥20% = ++)”.

As to “266 (KITDTLIHL; listed as Homo sapiens) [compound 266]”, the “Peptide exchange” value is ““+++” (≥50 = +++)”.

For “267 (ALQDFLLSV; listed as Homo sapiens) [compound 267]”, the “Peptide exchange” value is given as ““+++” (≥50 = +++)”.

On to “269 (RVLEVGALQAV; listed as Homo sapiens) [compound 269]”, for which the “Peptide exchange” value is on record as ““++” (≥20% = ++)”.

“270 (LLLDEEGTFSL; listed as Homo sapiens) [compound 270]”: the “Peptide exchange” value is ““++” (≥20% = ++)”.

As to “271 (LVYPLELYPA; listed as Homo sapiens) [compound 271]”, the “Peptide exchange” value was ““+++” (≥50 = +++)”.

In the case of “272 (ALGNTVPAV; listed as Homo sapiens) [compound 272]”, the “Peptide exchange” value was ““+++” (≥50 = +++)”.

For “273 (NLFQSVREV; listed as Homo sapiens) [compound 273]”, the “Peptide exchange” value is given as ““++” (≥20% = ++)”.

Take “274 (SLLFSLFEA; listed as Homo sapiens) [compound 274]”: the “Peptide exchange” value was ““++” (≥20% = ++)”.

With “275 (YLVYILNEL; listed as Homo sapiens) [compound 275]”, the “Peptide exchange” value is ““++” (≥20% = ++)”.

Take “276 (ALFTFSPLTV; listed as Homo sapiens) [compound 276]”: the “Peptide exchange” value was ““+++” (≥50 = +++)”.

Take “277 (LLPPLESLATV; listed as Homo sapiens) [compound 277]”: the “Peptide exchange” value was ““++” (≥20% = ++)”.

With “278 (QLLDVVLTI; listed as Homo sapiens) [compound 278]”, the “Peptide exchange” value was ““++” (≥20% = ++)”.

As to “279 (ALWGGTQPLL; listed as Homo sapiens) [compound 279]”, the “Peptide exchange” value was ““++” (≥20% = ++)”.

As to “280 (VLPDPEVLEAV; listed as Homo sapiens) [compound 280]”, the “Peptide exchange” value is on record as ““+++” (≥50 = +++)”.

Turning to “281 (ILRESTEEL; listed as Homo sapiens) [compound 281]”, the “Peptide exchange” value was ““+++” (≥50 = +++)”.

Consider “282 (LLADVVPTT; listed as Homo sapiens) [compound 282]”, for which the “Peptide exchange” value is listed as ““+++” (≥50 = +++)”.

As to “283 (ALYIGDGYVIHLA; listed as Homo sapiens) [compound 283]”, the “Peptide exchange” value was ““+++” (≥50 = +++)”.

Turning to “284 (ILLSQTTGV; listed as Homo sapiens) [compound 284]”, the “Peptide exchange” value is ““+++” (≥50 = +++)”.

For “285 (QLLHVGVTV; listed as Homo sapiens) [compound 285]”, the “Peptide exchange” value was ““+++” (≥50 = +++)”.

“286 (YLFPGIPEL; listed as Homo sapiens) [compound 286]”: the “Peptide exchange” value is ““+++” (≥50 = +++)”.

Regarding “287 (FLNEFFLNV; listed as Homo sapiens) [compound 287]”, the “Peptide exchange” value is given as ““+++” (≥50 = +++)”.

“288 (NLINEINGV; listed as Homo sapiens) [compound 288]”: the “Peptide exchange” value is given as ““+++” (≥50 = +++)”.

“289 (VLLEIEDLQV; listed as Homo sapiens) [compound 289]”: the “Peptide exchange” value is ““++++” (≥75% = ++++)”.

“295 (VLDRESPNV; listed as Homo sapiens) [compound 295]”: the “Peptide exchange” value is on record as ““+++” (≥50 = +++)”.

In the case of “296 (FMEGAIIYV; listed as Homo sapiens) [compound 296]”, the “Peptide exchange” value was ““+++” (≥50 = +++)”.

“297 (VLADIELAQA; listed as Homo sapiens) [compound 297]”: the “Peptide exchange” value is ““+++” (≥50 = +++)”.

Take “298 (VMITKLVEV; listed as Homo sapiens) [compound 298]”: the “Peptide exchange” value is reported as ““+++” (≥50 = +++)”.

Take “299 (YLLETSGNL; listed as Homo sapiens) [compound 299]”: the “Peptide exchange” value is listed as ““+++” (≥50 = +++)”.

As to “300 (ALLGQTFSL; listed as Homo sapiens) [compound 300]”, the “Peptide exchange” value is ““+++” (≥50 = +++)”.

As for “301 (FLVEDLVDSL; listed as Homo sapiens) [compound 301]”, the “Peptide exchange” value was ““+++” (≥50 = +++)”.

The values above are taken from US11230581B2, “Peptides and combination of peptides for use in immunotherapy against ovarian cancer and other cancers” (Immatics Biotechnologies GmbH, priority 2015, dated 2022).
